Source: the DeepSol protein solubility set

Test: soluble on expression in E. coli; label from the status in PepcDB or PDB records

Sequence | soluble on expression in E. coli
MSLDAPRFHIEEIRFSERDVALRLPFRFGAATVTACPQVYVRARIRFENGGTAEGCAAEMMVPKWFDKNPALSNEQNFEQLRCALRAARAAYVAEDGAQTAWTHFASNYAALQARAKAKGLQALVASYGPALIDRAVMDALCLRSGTSFATAMRANLCGIDIAGSGLADDLAGFDMPAFLASQSPRASIAARHTVGLADAIDDSDALPDAPADGLPTTLAEAVKRYGLTHFKPKLCGNTAQDISRLERIARVIDGHAQLVTLDGNEQYADADDFAVFLDRMLSTPVLWKLAQKTVFVEQPIRRDAALQRSVSAPGKRIPLLIDESDATLDAFVQARALGYTGVSSKSCKGFYKSVVNAARCAHWNAAEDKPRYFLSGEDLTMQAGIGVQQDLALVGWLGLSHVERNGHHYVNGLAAVPEAEQQALLKLHPGLYEPGDGAVRLAIRGGQLPLAPLAAAPGFATGIPGAGISWDAMRSVYEGHHHHHH | not soluble
GAMHTFYGTRLLNPKPVDFALEGPQGPVRLSQFQDKVVLLFFGFTRCPDVCPTTLLALKRAYEKLPPKAQERVQVIFVSVDPERDPPEVADRYAKAFHPSFLGLSGSPEAVREAAQTFGVFYQKSQYRGPGEYLVDHTATTFVVKEGRLVLLYSPDKAEATDRVVADLQALL | soluble
MGSDKIHHHHHHMKTLAQNIQEKLKASGLTQKELAERANISQVMVHKLISGKAKESSKLVAIAGVLGCTAEELMYGLEKHVPTSNAEWAGPMETWDSNTPLNDDEVEIPFYMEVELAAGHGIAEASEYHGPKLRFAKSTLRKSSVDPTNAACVRVSGNSMEPVLPSGSTVGVDTSQTDVIDGKMYAINHDGMLRVKTLYKLPGGGLRLRSYNIDEWPDERYEGEAIKQIKIIGKVFWYSVLM | not soluble
MGSDKIHHHHHHMPLLDIRNLTIELNTNNTKVKVLEKVSLTLNAGEIHGLVGESGSGRSLLAKAILGALGPQWTVIADRLMLDGKNLLDMSPKQRRCLMGSDIAMIFQDPSGSLDPVKTIGSQLIESMTPNKAVAFWRRGKDTYLNALKWLHKVGIKNPKSLMSCYPWELSEGECQKVMIAMAIANRPKLLIADEPTNSVELNAQAQIFRLLSQLNQLQNVSILLISHELETLVQWCDHLTVLYGGQVMESGPTDEMIAHPFHPYTKALLKNLPDYTGKMRHKSYLPTLQGSSPSLHNMPAGCRLGPRCPEAQRNCVKQPALEHQKDRYFACHFPYLNEQDTDDDAIA | not soluble
MSLTIQMKNTGKRIDLIANRKPQSQRVLYELRDRLKRNQFILNDTNPDIVISIGGDGMLLSAFHKYENQLDKVRFIGLHTGHLGFYTDYRDFELDKLVTNLQLDTGARVSYPVLNVKVFLENGEVKIFRALNEASIRRSDRTMVADIVINGVPFERFRGDGLTVSTPTGSTAYNKSLGGAVLHPTIEALQLTEIASLNNRVYRTLGSSIIVPKKDKIELIPTRNDYHTISVDNSVYSFRNIERIEYQIDHHKIHFVATPSHTSFWNRVKDAFIGEVDEEGHHHHHH | soluble
MGSDKIHHHHHHMSSQTTALNSGVHAKKADIFCQDEARVDWHSKALWVLREKRDRAAASLPEWEQLRQLGSEMKLHTLTHLGEYLETFEKNCQANGIVVHWAKDGAEHNQIVHNILAKHQVKKLVKSKSMLTEECHLNPYLESKGIEVIDTDLGERIIQLAKQPPSHIVVPAIHLKKEEVGDLFHDKLGTEAGASDPLYLTRAARAHLREQFLSADAAMTGVNMAIADKGAVVVCTNEGNADMGANLPKLQLHSMGIDKIVPDLDSAAILLRTLARNATGQPITTYSSFYRGPQDGGEMHVIIVDNGRTDMLQDKILAESLKCIRCGGCLNTCPVYRRSGGYSYNYTIPGPIGIAVGAQADDTHSIPWACTLCGSCSYVCPTKVPLDKIIHHHRRLKAKAGKLPYGKRNYMPLVGNFMASETMLNCSMSVARTALRILPGSLLKPFSGAWGKYRELPVAPKSSFEAWFNKNRGQ | not soluble
MGSDKIHHHHHHMMPYITDIAALEHVGVAAAWTEKVPAFRVLREKRMLDFRAPITVITGENGVGKSTLLEAIAINAGFDTAGGEHTGKFKPSDNPLQTVAKAHKGKEPMRGYFLRAETHFNVASGYRDEAPGWVNLHHMSHGESVMHIVQNAFVGKGLYLMDEPEAGLSFIRQMAILAELNFLAESGAQIIIVTHSPVLMAIPGAEIWEFSASGELHRGFDFEVTTAFRALRDFFEDPEEIAEYMMDVMMDNKGES | not soluble
QRDIPVQFIVAGVKRSDLRNLVEERIRKEGTKTREIRYREIGHYNGSVENIHLSVDKYEAAGGTEYFISYVTDDDHIVGFVRLRQPSEMAHRQEMLGSAIVRELKVFGQEVPVGRRDLKNWQHHGYGMRLMEEAERIARDDLGLDRILVISGIGVRQYFRKIGYEDLGPYVAKSLK | not soluble
